Data as given in patent US20140219913A1 (AbbVie / Abbott, published 2014).
Blank lines part the entries; values can stand above or below the binder they belong to.

What was measured:
[1] = target: T1, Recombinant human B7-1/CD80 Fc chimera (Cat. 140-B1-100, R&D Systems) (human, UniProt P33681 35-242); test: direct bind ELISA, coated recombinant human B7-1/CD80 Fc chimera
T1 construct: extracellular domain; also called B7-1 antigen; Fc part of the bought chimera not given; not described
T1 sequence (looked up): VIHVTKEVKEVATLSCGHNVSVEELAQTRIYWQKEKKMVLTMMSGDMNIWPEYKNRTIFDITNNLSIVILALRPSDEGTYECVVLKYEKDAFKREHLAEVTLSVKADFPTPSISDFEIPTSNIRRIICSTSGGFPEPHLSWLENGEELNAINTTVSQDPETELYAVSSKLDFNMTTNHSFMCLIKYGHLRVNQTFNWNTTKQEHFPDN
Method: Enzyme Linked Immunosorbent Assays (ELISA) to screen for antibodies that bind a desired target antigen were performed as follows. High bind ELISA plates (Corning Costar #3369, Acton, Mass.) were coated with 100 μL/well of 10 μg/ml of desired target antigen (R&D Systems, Minneapolis, Minn.) or desired target antigen extra-cellular domain/FC fusion protein (R&D Systems, Minneapolis, Minn.) or monoclonal mouse anti-polyHistidine antibody (R&D Systems #MAB050, Minneapolis, Minn.) in phosphate buffered saline (10×PBS, Abbott Bioresearch Center, Media Prep#MPS-073, Worcester, Mass.) overnight at 4° C. Plates were washed four times with PBS containing 0.02% Tween 20. Plates were blocked by the addition of 300 μL/well blocking solution (non-fat dry milk powder, various retail suppliers, diluted to 2% in PBS) for ½ hour at room temperature. Plates were washed four times after blocking with PBS containing 0.02% Tween 20.
One hundred microliters of 10 ng/mL goat anti-human IgG-FC specific HRP conjugated antibody (Southern Biotech #2040-05, Birmingham, Ala.) was added to each well of the desired target antigen plate or anti-polyHistidine antibody/Histidine tagged desired target antigen plate. Alternatively, one hundred microliters of 10 ng/mL goat anti-human IgG-kappa light chain specific HRP conjugated antibody (Southern Biotech #2060-05 Birmingham, Ala.) was added to each well of the desired target antigen/FC fusion plate and incubated for 1 hour at room temperature. Plates were washed 4 times with PBS containing 0.02% Tween 20.
One hundred microliters of enhanced TMB solution (Neogen Corp. #308177, K Blue, Lexington, Ky.) was added to each well and incubated for 10 minutes at room temperature. The reaction was stopped by the addition of 50 μL 1N sulphuric acid. Plates were read spectrophotometrically at a wavelength of 450 nm

[2] = target: T2, Recombinant human B7-2/CD86 Fc chimera (Cat. 141-B2-100, R&D Systems) (human, UniProt P42081 26-245); test: competitive ELISA; coated CD28 Fc, biotinylated B7-2/CD86 Fc, construct titrated
T2 construct: Fc part of the bought chimera not given; not described
T2 sequence (looked up): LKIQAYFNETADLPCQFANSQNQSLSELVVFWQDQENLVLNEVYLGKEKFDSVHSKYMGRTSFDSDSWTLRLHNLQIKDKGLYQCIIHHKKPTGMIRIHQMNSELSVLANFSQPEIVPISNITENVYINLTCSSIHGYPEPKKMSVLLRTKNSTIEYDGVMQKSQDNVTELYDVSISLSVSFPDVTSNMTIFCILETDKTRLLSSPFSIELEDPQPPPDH
Method: (§1) ELISA plates (Nunc, MaxiSorp, Rochester, N.Y.) were incubated overnight at 4° C. with Recombinant Human CD28 Fc Chimera (Cat. #342-CD-200). Plates were washed three times in washing buffer (PBS containing 0.05% Tween 20), and blocked for 1 hour at 25° C. in blocking buffer (PBS containing 1% BSA). Wells were washed three times, and serial dilutions of each antibody or DVD-Ig in PBS containing 0.1% BSA were added to the wells and incubated at 25° C. for 1 hour. The wells were washed three times, and biotinylated antigen (2 nM) was added to the plates and incubated for 1 hour at 25° C. The wells were washed three times and incubated for 1 hour at 25° C. with streptavidin-HRP (KPL #474-3000, Gaithersburg, Md.). The wells were washed three times, and 100 μl of ULTRA-TMB ELISA (Pierce, Rockford, Ill.) was added per well. Following color development the reaction was stopped with 1N HCL and absorbance at 450 nm was measured. Recombinant human B7-1/CD80 Fc chimera (Cat. 140-B1-100, R&D Systems, Minneapolis, Minn.) was used.
Recombinant human B7-2/CD86 Fc chimera (Cat. 141-B2-100, R&D Systems, Minneapolis, Minn.) was used.

[3] = target: T1, Recombinant human B7-1/CD80 Fc chimera …; test: competitive ELISA; coated CD28 Fc, biotinylated B7-1/CD80 Fc (2 nM), construct titrated
Method: as §1

TNF-alpha = test: cell-based or functional assay
NGF = test: cell-based or functional assay

N-terminal L929 Assay (EC50, pM) (TNF-alpha): 90 pM
B2: RAB028 (other)
VH: EVQLVQSGAEVKKPGASVKVSCKASGYTFTKYWLGWVRQAPGQGLEWMGDIYPGYDYTHYNEKFKDRVTLTTDTSTSTAYMELRSLRSDDTAVYYCARSDGSSTYWGQGTLVTVSS
VL: LPAQVAFTPYAPEPGSTCRLREYYDQTAQMCCSKCSPGQHAKVFCTKTSDTVCDSCEDSTYTQLWNWVPECLSCGSRCSSDQVETQACTREQNRICTCRPGWYCALSKQEGCRLCAPLRKCRPGFGVARPGTETSDVVCKPCAPGTFSNTTSSTDICRPHQICNVVAIPGNASMDAVCTSTSPTRSMAPGAVHLPQPVSTRSQHTQPTPEPSTAPSTSFLLPMGPSPPAEGSTGDTVAAPDVLMTQTPLSLPVTPGEPASISCTSSQNIVHSNGNTYLEWYLQKPGQSPQLLIYKVSNRFSGVPDRFSGSGSGTDFTLKISRVEAEDVGVYYCFQVSHVPYTFGGGTKVEIKR

N-terminal L929 Assay (EC50, pM) (TNF-alpha): 30 pM
B4: RAB027 (other)
VH: LPAQVAFTPYAPEPGSTCRLREYYDQTAQMCCSKCSPGQHAKVFCTKTSDTVCDSCEDSTYTQLWNWVPECLSCGSRCSSDQVETQACTREQNRICTCRPGWYCALSKQEGCRLCAPLRKCRPGFGVARPGTETSDVVCKPCAPGTFSNTTSSTDICRPHQICNVVAIPGNASMDAVCTSTSPTRSMAPGAVHLPQPVSTRSQHTQPTPEPSTAPSTSFLLPMGPSPPAEGSTGDASTKGPEVQLVQSGAEVKKPGASVKVSCKASGYTFTKYWLGWVRQAPGQGLEWMGDIYPGYDYTHYNEKFKDRVTLTTDTSTSTAYMELRSLRSDDTAVYYCARSDGSSTYWGQGTLVTVSS
VL: DVLMTQTPLSLPVTPGEPASISCTSSQNIVHSNGNTYLEWYLQKPGQSPQLLIYKVSNRFSGVPDRFSGSGSGTDFTLKISRVEAEDVGVYYCFQVSHVPYTFGGGTKVEIKR

EC50 [1]: 1.2 nM
EC50 [2]: 1 nM
EC50 [3]: 1.7 nM
B6: RAB020 (other)
VH: AMHVAQPAVVLASSRGIASFVCEYASPGKYTEVRVTVLRQADSQVTEVCAATYMMGNELTFLDDSICTGTSSGNQVNLTIQGLRAMDTGLYICKVELMYPPPYYEGIGNGTQIYVIDPEPCPDSDQEPKSSDKTHTSPEVQLVQSGAEVKKPGASVKVSCKASGYTFTKYWLGWVRQAPGQGLEWMGDIYPGYDYTHYNEKFKDRVTLTTDTSTSTAYMELRSLRSDDTAVYYCARSDGSSTYWGQGTLVTVSS
VL: B4 VL
notes: rDVD-Ig with LEA29Y on the heavy chain only and a QH linker; also called RAB020H; RAB020L

N-terminal L929 Assay (EC50, pM) (TNF-alpha): 120 pM
C-terminal Bioassay Mean (IC50, nM): Cell Impedance assay (NGF): 1.1 nM
C-terminal Bioassay Mean (IC50, nM): pERK assay (NGF): 0.5 nM
B7: RAB031 (other)
VH: QVQLQESGPGLVKPSETLSLTCTVSGFSLIGYDLNWIRQPPGKGLEWIGIIWGDGTTDYNSAVKSRVTISKDTSKNQFSLKLSSVTAADTAVYYCARGGYWYATSYYFDYWGQGTLVTVSS
VL: LPAQVAFTPYAPEPGSTCRLREYYDQTAQMCCSKCSPGQHAKVFCTKTSDTVCDSCEDSTYTQLWNWVPECLSCGSRCSSDQVETQACTREQNRICTCRPGWYCALSKQEGCRLCAPLRKCRPGFGVARPGTETSDVVCKPCAPGTFSNTTSSTDICRPHQICNVVAIPGNASMDAVCTSTSPTRSMAPGAVHLPQPVSTRSQHTQPTPEPSTAPSTSFLLPMGPSPPAEGSTGDTVAAPDIQMTQSPSSLSASVGDRVTITCRASQSISNNLNWYQQKPGKAPKLLIYYTSRFHSGVPSRFSGSGSGTDFTFTISSLQPEDIATYYCQQEHTLPYTFGQGTKLEIKR

More lines, now with the values behind:

B1: RAB013 (other)
VH: AMHVAQPAVVLASSRGIASFVCEYASPGKYTEVRVTVLRQADSQVTEVCAATYMMGNELTFLDDSICTGTSSGNQVNLTIQGLRAMDTGLYICKVELMYPPPYYEGIGNGTQIYVIDPEPCPDSDASTKGPSVFPLAPEVQLVQSGAEVKKPGASVKVSCKASGYTFTKYWLGWVRQAPGQGLEWMGDIYPGYDYTHYNEKFKDRVTLTTDTSTSTAYMELRSLRSDDTAVYYCARSDGSSTYWGQGTLVTVSS
VL: AMHVAQPAVVLASSRGIASFVCEYASPGKYTEVRVTVLRQADSQVTEVCAATYMMGNELTFLDDSICTGTSSGNQVNLTIQGLRAMDTGLYICKVELMYPPPYYEGIGNGTQIYVIDPEPCPDSDTVAAPSVFIFPPDVLMTQTPLSLPVTPGEPASISCTSSQNIVHSNGNTYLEWYLQKPGQSPQLLIYKVSNRFSGVPDRFSGSGSGTDFTLKISRVEAEDVGVYYCFQVSHVPYTFGGGTKVEIKR
notes: rDVD-Ig with LEA29Y on both chains and long linkers; also called RAB013H; RAB013L
EC50 [1]: 21.2 nM
EC50 [2]: 0.5 nM
EC50 [3]: 2 nM

B3: RAB030 (other)
VH: LPAQVAFTPYAPEPGSTCRLREYYDQTAQMCCSKCSPGQHAKVFCTKTSDTVCDSCEDSTYTQLWNWVPECLSCGSRCSSDQVETQACTREQNRICTCRPGWYCALSKQEGCRLCAPLRKCRPGFGVARPGTETSDVVCKPCAPGTFSNTTSSTDICRPHQICNVVAIPGNASMDAVCTSTSPTRSMAPGAVHLPQPVSTRSQHTQPTPEPSTAPSTSFLLPMGPSPPAEGSTGDASTKGPQVQLQESGPGLVKPSETLSLTCTVSGFSLIGYDLNWIRQPPGKGLEWIGIIWGDGTTDYNSAVKSRVTISKDTSKNQFSLKLSSVTAADTAVYYCARGGYWYATSYYFDYWGQGTLVTVSS
VL: DIQMTQSPSSLSASVGDRVTITCRASQSISNNLNWYQQKPGKAPKLLIYYTSRFHSGVPSRFSGSGSGTDFTFTISSLQPEDIATYYCQQEHTLPYTFGQGTKLEIKR
N-terminal L929 Assay (EC50, pM) (TNF-alpha): 50 pM
C-terminal Bioassay Mean (IC50, nM): Cell Impedance assay (NGF): 1.6 nM
C-terminal Bioassay Mean (IC50, nM): pERK assay (NGF): 0.6 nM

B5: RAB014 (other)
VH: B1 VH
VL: B4 VL
notes: rDVD-Ig with LEA29Y on the heavy chain only and a long linker; also called RAB014H; RAB014L
EC50 [1]: 1.5 nM
EC50 [2]: 1.1 nM
EC50 [3]: 1.7 nM
